Measurements reported in patent publication US20190336589A1 (published 2019).

T1: Hen egg lysozyme (HEL) peptide on I-A^k (mouse)
T1 peptide: DGSTDYGILQINSR

T2: PLP (myelin proteolipid protein) peptide on I-A^s (mouse, 3rd amino acid from the N terminus substituted from cysteine to serine; contains the serine-substituted epitope of SEQ ID NO: 20)
T2 peptide: RVSHSLGKWLGHPDKF

B1: 3A9 TCR (TCR, V domains shown)
Valpha: AQSVTQPDARVTVSEGASLQLRCKYSYSGTPYLFWYVQYPRQGLQLLLKYYSGDPVVQGVNGFEAEFSKSNSSFHLRKASVHWSDSAVYFCALNSGGSNAKLAFGKGSKLSVKS
Vbeta: AVTQSPRNKVAVTGGKVTLSCNQTNNHNNMYWYRQDTGHGLRLIHYSYGAGSTEKGDIPDGYKASRPSQENFSLILELATPSQTSVYFCASGDESALPELYFGEGSKLTVL
B2: 2E5 TCR (TCR, V domains shown)
Valpha: GEKVEQHQSTLSVREGDSAVINCTYTDTASSYFPWYKQEAGKSLHFVIDIRSNVDRKQSQRLTVLLDKKAKRFSLHITATQPEDSAIYFCAASPGANTGKLTFGHGTILRVHP
Vbeta: VAGVTQTPRYLVKEEGQKAHMSCSPEKGHTAFYWYQQNQKQELTFLINFRNEEIMEQTDLVKKRFSAKCSSNSQCILEILSSEEDDSALYLCASSLVRGNSDYTFGSGTRLLVI

Legend:
[1] = molecular target: T1, Hen egg lysozyme (HEL) peptide on I-A^k; assay: binding, other
[2] = molecular target: Hen egg lysozyme (HEL) peptide on I-A^k (mouse); assay: binding, other; remark: listed apart in the source
Target sequence in this assay (peptide, as listed by the source): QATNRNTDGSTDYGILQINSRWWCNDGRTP

[3] = molecular target: T2, PLP (myelin proteolipid protein) …; assay: activation reporter or marker
Procedure: The cultured cells were collected, and the 2E5 reporter T cells were stained with an APC-labeled anti-CD45 antibody (clone name: 30-F11, eBioscience). Then, the stained 2E5 reporter cells were analyzed by flow cytometry so as to determine the proportion of the GFP-positive cells in the CD45-positive cells. As Control 1, the proportion of the GFP-positive cells in the CD45-positive cells was analyzed in the same manner, except that the above-described medium was added instead of the IgG antibody.

| Binder | binding result [1] | binding result [2] | binding result [3] |
| --- | --- | --- | --- |
| B1 | recognises | recognises |  |
| B2 |  |  | recognises |
